Target: T1, His10-Ub-Ub WT (UniProt P0CG48 1-76; P0CG48 1-76)
T1 construct: ubiquitin, distal moiety; ubiquitin, proximal moiety; two ubiquitins head to tail on one chain; also called linear diUb; M1-linked diUb; source: E. coli BL21-CodonPlus (DE3)-RIPL, purified (HisTrap, desalting); not shown: His10, N-terminal, kept
Assay: pull-down; 20 μg OTULINcat-ST with equimolar His10-diUb in PBS, 0.1% BSA, 5% glycerol, 0.1% Triton-X, 2 h 4 °C; OTULINcat-ST held on Strep-Tactin Sepharose, eight washes with 0.5% Triton-X; western blot
Settings: both partners purified

B1: OTULINcat-Strep-tag II C129A (domain or fragment, UniProt Q96BN8 80-352, looked up)
chain: LSVAPEMDIMDYCKKEWRGNTQKATCMKMGYEEVSQKFTSIRRVRGDNYAALRATLFQAMSQAVGLPPWLQDPELMLLPEKLISKYNWIKQWKLGLKFDGKNEDLVDKIKESLTLLRKKWAGLAEMRTAEARQIACDELFTNEAEEYSLYEAVKFLMLNRAIELYNDKEKGKEVPFFSVLLFARDTSNDPGQLLRNHLNQVGHTGGLEQVEMFLLAYAVRHTIQVYRLSKYNTEEFITVYPTDPPKDWPVVTLIAEDDRHYNIPVRVCEETSL
notes: also called OTULINcat C129A; OTULIN C129A; source: E. coli BL21-CodonPlus (DE3)-RIPL, purified (StrepTrap, desalting); not shown: Strep-tag II, C-terminal, kept
  binding result: binds

— paper PMC5658516 (Cell Chemical Biology, 2017)
